Changes are numbered by the printed parent chain.
B1: 2D3 (antibody, V domains shown)
VH: EVQLLESGGGLVQPGGSLRLSCTASGFTFSDNHMSWVRQAPGKGLDWVSGISESGGSTYYADSVKGRFSTSRDNSKSTLYLDMNSLRAEDTAIYYCAKGRFSYDTRHFFRAVYGMDVWGQGTAVTVSS
VL: DIQLTQSPSSLSASVGDRVTITCRASQGISSYLAWYQQKPGKAPKLLIYAASTLQSGVPSRFSGSGSGTDFTLTISSLQPEDFATYYCQQLSSYPLSFGGGTKVEIK
B2: 7B1-1F5 (antibody, V domains shown)
VH: B1 VH with H33Y, G50V, Y59N, Y103T, D104L, T105S, R106S
VL: B1 VL with L11F, V15T, L46V, D70E, S92K, S97T, V104L
B3: 9B12 (antibody, V domains shown)
VH: B1 VH with H33P, G50V, Y59N, Y60D, Y103T, D104N, T105S, R106D, F109Y
VL: B1 VL with S97T

target: native PcrV on live Pseudomonas aeruginosa (strains O6-57/66, O11-PA103, O1-52/66, O16-177/81) (Pseudomonas aeruginosa); experiment: cell-based or functional assay

**Q.** For B1, which RBC lysis assay IC50 (P. aeruginosa strain 57/66(O6)) is on record?
**A.** 0.05 mg/L

**Q.** For B2, which RBC lysis assay IC50 (P. aeruginosa strain 57/66(O6)) is on record?
**A.** 0.19 mg/L

**Q.** For B3, which RBC lysis assay IC50 (P. aeruginosa strain 57/66(O6)) is on record?
**A.** 0.07 mg/L

From patent publication US20220289830A1
